US20140213531A1 (POLYPHOR, published 2014)
Bridges are numbered along the chain shown (N, C = ends). [ ]: non-standard residue; d: D form. AlloThr = allo threonine

T1: Elastase from human neutrophils (human, UniProt P08246 30-247, limits assumed)
T1 sequence (looked up): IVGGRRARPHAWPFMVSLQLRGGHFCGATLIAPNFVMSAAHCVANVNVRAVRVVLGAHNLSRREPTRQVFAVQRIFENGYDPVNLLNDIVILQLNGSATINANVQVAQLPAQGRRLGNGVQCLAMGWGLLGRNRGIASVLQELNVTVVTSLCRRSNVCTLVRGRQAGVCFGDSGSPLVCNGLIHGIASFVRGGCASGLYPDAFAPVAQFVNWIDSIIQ

T2: CathepsinG, from human neutrophils (human, UniProt P08311 21-244)
T2 sequence (looked up): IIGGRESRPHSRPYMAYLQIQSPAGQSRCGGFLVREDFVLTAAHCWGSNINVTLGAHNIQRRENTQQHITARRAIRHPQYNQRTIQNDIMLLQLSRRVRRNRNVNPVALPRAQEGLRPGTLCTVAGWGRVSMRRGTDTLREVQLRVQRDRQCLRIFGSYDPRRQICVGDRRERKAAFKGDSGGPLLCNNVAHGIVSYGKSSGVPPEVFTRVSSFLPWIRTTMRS

T3: Chymase, from human skin (human, UniProt P23946 22-247)
T3 sequence (looked up): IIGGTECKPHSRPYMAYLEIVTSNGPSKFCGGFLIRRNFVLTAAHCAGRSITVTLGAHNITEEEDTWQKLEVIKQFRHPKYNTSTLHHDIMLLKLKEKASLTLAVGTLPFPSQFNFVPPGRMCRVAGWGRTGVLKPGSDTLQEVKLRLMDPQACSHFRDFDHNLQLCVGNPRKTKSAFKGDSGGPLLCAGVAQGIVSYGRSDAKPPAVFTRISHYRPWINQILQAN


Assays:
Assay in all cases: cell-based or functional assay
[1] = molecular target: T1, Elastase from human neutrophils
[2] = molecular target: Chymotrypsin, from human pancreas (human, UniProt P17538 19-263)
[3] = molecular target: Coagulation Factor Xa, from human plasma (human, UniProt P00742 41-488, limits assumed)
[4] = molecular target: Thrombin, from Human Plasma, high activity (human, UniProt P00734 328-622)
[5] = molecular target: Urokinase from human urine (human, UniProt P00749 21-431, limits assumed)
[6] = molecular target: T2, CathepsinG, from human neutrophils
[7] = molecular target: T3, Chymase, from human skin
[8] = molecular target: Trypsin, Iodination grade, from human pancreas (human, UniProt P07477 24-247)
[9] = molecular target: Tryptase, from human lung (human, UniProt Q15661 31-275, limits assumed)
Tryptase, from human lung, sequence (Q15661 31-275 limits assumed): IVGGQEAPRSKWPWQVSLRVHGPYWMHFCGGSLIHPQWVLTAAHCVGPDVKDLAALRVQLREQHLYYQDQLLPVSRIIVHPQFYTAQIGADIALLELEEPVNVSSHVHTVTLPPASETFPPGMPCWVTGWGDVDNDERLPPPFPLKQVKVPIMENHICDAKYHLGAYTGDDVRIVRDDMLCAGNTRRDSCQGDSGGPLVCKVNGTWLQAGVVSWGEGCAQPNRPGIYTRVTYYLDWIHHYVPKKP

Coagulation Factor Xa, from human plasma, sequence (P00742 41-488 limits assumed): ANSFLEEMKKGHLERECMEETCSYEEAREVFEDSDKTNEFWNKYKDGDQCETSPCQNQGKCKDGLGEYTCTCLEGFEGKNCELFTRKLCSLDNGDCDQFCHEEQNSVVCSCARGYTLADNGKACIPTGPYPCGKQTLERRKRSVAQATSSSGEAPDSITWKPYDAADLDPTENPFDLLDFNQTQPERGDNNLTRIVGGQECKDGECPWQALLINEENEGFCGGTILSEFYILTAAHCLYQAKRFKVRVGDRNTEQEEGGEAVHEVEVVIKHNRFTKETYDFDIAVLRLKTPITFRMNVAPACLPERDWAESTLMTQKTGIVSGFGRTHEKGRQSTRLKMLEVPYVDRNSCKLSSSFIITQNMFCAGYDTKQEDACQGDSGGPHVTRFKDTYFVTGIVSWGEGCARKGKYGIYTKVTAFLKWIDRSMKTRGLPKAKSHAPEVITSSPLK
Chymotrypsin, from human pancreas, sequence (P17538 19-263): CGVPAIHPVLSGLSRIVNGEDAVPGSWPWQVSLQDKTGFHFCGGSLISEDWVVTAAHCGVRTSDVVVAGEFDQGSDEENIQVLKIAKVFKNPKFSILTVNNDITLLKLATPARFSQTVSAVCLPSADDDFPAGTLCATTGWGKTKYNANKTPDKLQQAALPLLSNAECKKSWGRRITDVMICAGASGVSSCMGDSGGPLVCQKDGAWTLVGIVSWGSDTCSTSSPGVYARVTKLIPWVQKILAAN

IC50 [1]	% inhibition at 100 µM [2]	% inhibition at 100 µM [3]	% inhibition at 100 µM [4]	% inhibition at 100 µM [5]	IC50 [6]	% inhibition at 100 µM [7]	% inhibition at 100 µM [8]	% inhibition at 100 µM [9]	Binder
> 100000 nmol	15%	8%	10%	15%	34 nmol	12%	98%	76%	XCTKSDPPICN (HELM PEPTIDE1{[Nc1ccc(C[C@H](N[*:1])C(=O)[*:2])cc1].C.T.K.S.D.P.P.I.C.N.[dP].P}$PEPTIDE1,PEPTIDE1,2:R3-10:R3|PEPTIDE1,PEPTIDE1,1:R1-13:R2$$$V2.0; SMILES CC[C@H](C)[C@@H]1NC(=O)[C@@H]2CCCN2C(=O)[C@@H]2CCCN2C(=O)[C@H](CC(=O)O)NC(=O)[C@H](CO)NC(=O)[C@H](CCCCN)NC(=O)[C@H]([C@@H](C)O)NC(=O)[C@@H]2CSSC[C@H](NC1=O)C(=O)N[C@@H](CC(N)=O)C(=O)N1CCC[C@@H]1C(=O)N1CCC[C@H]1C(=O)N[C@@H](Cc1ccc(N)cc1)C(=O)N2) [Example 31]
> 100000 nmol	0%	4%	0%	4%	51 nmol	1%	92%	68%	FCTKSDPPICN (HELM PEPTIDE1{F.C.T.K.S.D.P.P.I.C.N.[dP].P}$PEPTIDE1,PEPTIDE1,2:R3-10:R3|PEPTIDE1,PEPTIDE1,1:R1-13:R2$$$V2.0; SMILES CC[C@H](C)[C@@H]1NC(=O)[C@@H]2CCCN2C(=O)[C@@H]2CCCN2C(=O)[C@H](CC(=O)O)NC(=O)[C@H](CO)NC(=O)[C@H](CCCCN)NC(=O)[C@H]([C@@H](C)O)NC(=O)[C@@H]2CSSC[C@H](NC1=O)C(=O)N[C@@H](CC(N)=O)C(=O)N1CCC[C@@H]1C(=O)N1CCC[C@H]1C(=O)N[C@@H](Cc1ccccc1)C(=O)N2) [Example 3]
> 100000 nmol	1%	30%	3.5%	5.1%	71 nmol	1.2%	97%	0%	cyclo(FCTK[AlloThr]DPPICS[dP]P) (disulfide 2-10) [Example 24]
> 100000 nmol	7%	0%	2%	2%	38 nmol	0%	94%	34%	XCTKSDPPICD (HELM PEPTIDE1{[O=C([C@@H](N[*:1])C1CCCCC1)[*:2]].C.T.K.S.D.P.P.I.C.D.[dP].P}$PEPTIDE1,PEPTIDE1,2:R3-10:R3|PEPTIDE1,PEPTIDE1,1:R1-13:R2$$$V2.0; SMILES CC[C@H](C)[C@@H]1NC(=O)[C@@H]2CCCN2C(=O)[C@@H]2CCCN2C(=O)[C@H](CC(=O)O)NC(=O)[C@H](CO)NC(=O)[C@H](CCCCN)NC(=O)[C@H]([C@@H](C)O)NC(=O)[C@@H]2CSSC[C@H](NC1=O)C(=O)N[C@@H](CC(=O)O)C(=O)N1CCC[C@@H]1C(=O)N1CCC[C@H]1C(=O)N[C@@H](C1CCCCC1)C(=O)N2) [Example 39]
> 100000 nmol	32%	6%	12%	1%	39 nmol	0%	95%	0%	XCTKSDPPICT (HELM PEPTIDE1{[O=C([C@H](CCc1ccccc1)N[*:1])[*:2]].C.T.K.S.D.P.P.I.C.T.[dP].P}$PEPTIDE1,PEPTIDE1,2:R3-10:R3|PEPTIDE1,PEPTIDE1,1:R1-13:R2$$$V2.0; SMILES CC[C@H](C)[C@@H]1NC(=O)[C@@H]2CCCN2C(=O)[C@@H]2CCCN2C(=O)[C@H](CC(=O)O)NC(=O)[C@H](CO)NC(=O)[C@H](CCCCN)NC(=O)[C@H]([C@@H](C)O)NC(=O)[C@@H]2CSSC[C@H](NC1=O)C(=O)N[C@@H]([C@@H](C)O)C(=O)N1CCC[C@@H]1C(=O)N1CCC[C@H]1C(=O)N[C@@H](CCc1ccccc1)C(=O)N2) [Example 28]
> 100000 nmol	2.9%	5.3%	9.2%	0.9%	84 nmol	0%	92%	39.6%	FCTKSDPPICD (HELM PEPTIDE1{F.C.T.K.S.D.P.P.I.C.D.[dP].P}$PEPTIDE1,PEPTIDE1,2:R3-10:R3|PEPTIDE1,PEPTIDE1,1:R1-13:R2$$$V2.0; SMILES CC[C@H](C)[C@@H]1NC(=O)[C@@H]2CCCN2C(=O)[C@@H]2CCCN2C(=O)[C@H](CC(=O)O)NC(=O)[C@H](CO)NC(=O)[C@H](CCCCN)NC(=O)[C@H]([C@@H](C)O)NC(=O)[C@@H]2CSSC[C@H](NC1=O)C(=O)N[C@@H](CC(=O)O)C(=O)N1CCC[C@@H]1C(=O)N1CCC[C@H]1C(=O)N[C@@H](Cc1ccccc1)C(=O)N2) [Example 2]
> 100000 nmol	2.2%	6%	3%	3.1%	49 nmol	0%	84%	66.4%	YCTKSDPPICY (HELM PEPTIDE1{Y.C.T.K.S.D.P.P.I.C.Y.[dP].P}$PEPTIDE1,PEPTIDE1,2:R3-10:R3|PEPTIDE1,PEPTIDE1,1:R1-13:R2$$$V2.0; SMILES CC[C@H](C)[C@@H]1NC(=O)[C@@H]2CCCN2C(=O)[C@@H]2CCCN2C(=O)[C@H](CC(=O)O)NC(=O)[C@H](CO)NC(=O)[C@H](CCCCN)NC(=O)[C@H]([C@@H](C)O)NC(=O)[C@@H]2CSSC[C@H](NC1=O)C(=O)N[C@@H](Cc1ccc(O)cc1)C(=O)N1CCC[C@@H]1C(=O)N1CCC[C@H]1C(=O)N[C@@H](Cc1ccc(O)cc1)C(=O)N2) [Example 26]
> 100000 nmol	7.8%	5.7%	1.1%	5.7%	86 nmol	0%	92.6%	0%	FCTKSEPPICT (HELM PEPTIDE1{F.C.T.K.S.E.P.P.I.C.T.[dP].P}$PEPTIDE1,PEPTIDE1,2:R3-10:R3|PEPTIDE1,PEPTIDE1,1:R1-13:R2$$$V2.0; SMILES CC[C@H](C)[C@@H]1NC(=O)[C@@H]2CCCN2C(=O)[C@@H]2CCCN2C(=O)[C@H](CCC(=O)O)NC(=O)[C@H](CO)NC(=O)[C@H](CCCCN)NC(=O)[C@H]([C@@H](C)O)NC(=O)[C@@H]2CSSC[C@H](NC1=O)C(=O)N[C@@H]([C@@H](C)O)C(=O)N1CCC[C@@H]1C(=O)N1CCC[C@H]1C(=O)N[C@@H](Cc1ccccc1)C(=O)N2) [Example 1]
> 100000 nmol	4%	0%	0%	1%	31 nmol	1%	96%	11%	XCTKSDPPICT (HELM PEPTIDE1{[O=C([C@@H](N[*:1])C1CCCCC1)[*:2]].C.T.K.S.D.P.P.I.C.T.[dP].P}$PEPTIDE1,PEPTIDE1,2:R3-10:R3|PEPTIDE1,PEPTIDE1,1:R1-13:R2$$$V2.0; SMILES CC[C@H](C)[C@@H]1NC(=O)[C@@H]2CCCN2C(=O)[C@@H]2CCCN2C(=O)[C@H](CC(=O)O)NC(=O)[C@H](CO)NC(=O)[C@H](CCCCN)NC(=O)[C@H]([C@@H](C)O)NC(=O)[C@@H]2CSSC[C@H](NC1=O)C(=O)N[C@@H]([C@@H](C)O)C(=O)N1CCC[C@@H]1C(=O)N1CCC[C@H]1C(=O)N[C@@H](C1CCCCC1)C(=O)N2) [Example 38]
